# Experimental data taken from publication PMC7898959, “Identification of an amino-terminus determinant critical for ryanodine receptor/Ca^2+ release channel function” (Cardiovascular Research, 2020).
# Biological target: the molecule itself
# Test: cross-linking; HEK293 cell homogenate (20 μg) with glutaraldehyde (0.0025% or 260 μmol/L) for 0 min to 1 h under reducing (10 mM DTT) conditions; SDS-PAGE and blot with Ab^cMyc; tetramer formation T = ODT/(ODT + ODM) × 100 by densitometry
protein,measurement,value
"NT^Δβ23–β24 (RyR2 residues 1–906, residues 399–401 removed) (domain or fragment, human, UniProt Q92736 1-906, looked up, cardiac ryanodine receptor (RyR2), N-terminus, residues 1-906, with residues 399-401 removed; source: HEK293, transiently transfected, in cell homogenate; not shown: cMyc, N-terminal, kept) MADGGEGEDEIQFLRTDDEVVLQCTATIHKEQQKLCLAAEGFGNRLCFLESTSNSKNVPPDLSICTFVLEQSLSVRALQEMLANTVEKSEGQVDVEKWKFMMKTAQGGGHRTLLYGHAILLRHSYSGMYLCCLSTSRSSTDKLAFDVGLQEDTTGEACWWTIHPASKQRSEGEKVRVGDDLILVSVSSERYLHLSYGNGSLHVDAAFQQTLWSVAPISSGSEAAQGYLIGGDVLRLLHGHMDECLTVPSGEHGEEQRRTVHYEGGAVSVHARSLWRLETLRVAWSGSHIRWGQPFRLRHVTTGKYLSLMEDKNLLLMDKEKADVKSTAFTFRSSKEKLDVGVRKEVDGMGTSEIKYGDSVCYIQHVDTGLWLTYQSVDVKSVRMGSIQRKAIMHHEGHGISLSRSQHEESRTARVIRSTVFLFNRFIRGLDALSKKAKASTVDLPIESVSLSLQDLIGYFHPPDEHLEHEDKQNRLRALKNRQNLFQEEGMINLVLECIDRLHVYSSAAHFADVAGREAGESWKSILNSLYELLAALIRGNRKNCAQFSGSLDWLISRLERLEASSGILEVLHCVLVESPEALNIIKEGHIKSIISLLDKHGRNHKVLDVLCSLCVCHGVAVRSNQHLICDNLLPGRDLLLQTRLVNHVSSMRPNIFLGVSEGSAQYKKWYYELMVDHTEPFVTAEATHLRVGWASTEGYSPYPGGGEEWGGNGVGDDLFSYGFDGLHLWSGCIARTVSSPNQHLLRTDDVISCCLDLSAPSISFRINGQPVQGMFENFNIDGLFFPVVSFSAGIKVRFLLGGRHGEFKFLPPPGYAPCYEAVLPKEKLKVEHSREYKQERTYTRDLLGPTVSLTQAAFTPIPVDTSQIVLPPHLERIREKLAENIHELWVMNKIELGWQYGP",stoichiometry N,4
